Target: T1, integrin alpha2b beta3 (UniProt P08514 32-993; P05106 27-718)
T1 construct: also called integrin α2b β3; integrin alpha2 beta3
Experiment: ELISA on coated integrin alpha2b beta3 (100 ng per well), anti-human Fab-HRP, absorbance 405 nm

B1: abciximab (ReoPro) (Fab, V domains shown)
VH: EVQLQQSGTVLARPGASVKMSCEASGYTFTNYWMHWVKQRPGQGLEWIGAIYPGNSDTSYIQKFKGKAKLTAVTSTTSVYMELSSLTNEDSAVYYCTLYDGYYVFAYWGQGTLVTVSA
VL: EIVLTQSPVTLSVTPGDSVSLSCRASRDISNNLHWFQQTSHESPRLLIKYASQSMSGIPSRFSGSGSGTDFTLSINSVETEDFGMYFCQQTNSWPYTFGGGTKLEIK
With B1 as the binder, how does the “EC50 (read off the curve)” value read?
The value was roughly 0.8 nM.

From patent US20140056926A1 (SNU R AND DB FOUNDATION, published 2014)
